{"source": "patent US20150368316A1", "about": "(ALBERT EINSTEIN COLLEGE OF MEDICINE OF YESHIVA UNIVERSITY, published 2015)", "key": {"[1]": {"target": "human PD-L1 on mature human monocyte-derived dendritic cells (human) (UniProt Q9NZQ7)", "sequence (Q9NZQ7 19-290)": "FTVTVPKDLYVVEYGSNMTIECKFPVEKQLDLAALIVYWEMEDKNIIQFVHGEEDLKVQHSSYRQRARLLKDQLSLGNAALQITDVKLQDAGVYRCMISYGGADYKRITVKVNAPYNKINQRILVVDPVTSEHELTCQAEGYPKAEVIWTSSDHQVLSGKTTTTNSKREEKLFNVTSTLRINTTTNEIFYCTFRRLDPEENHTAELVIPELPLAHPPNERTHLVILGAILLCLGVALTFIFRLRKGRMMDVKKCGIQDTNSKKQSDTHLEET", "experiment": "flow cytometry, Kd estimated from MFI of Ig fusion protein binding to TNF-α-matured human monocyte-derived dendritic cells; the cells express both PD-L1 and PD-L2, so the value is an apparent avidity not resolved between the two ligands [panel B, table]"}, "[2]": {"target": "human PD-L2 on mature human monocyte-derived dendritic cells (human) (UniProt Q9BQ51)", "sequence (Q9BQ51 20-273)": "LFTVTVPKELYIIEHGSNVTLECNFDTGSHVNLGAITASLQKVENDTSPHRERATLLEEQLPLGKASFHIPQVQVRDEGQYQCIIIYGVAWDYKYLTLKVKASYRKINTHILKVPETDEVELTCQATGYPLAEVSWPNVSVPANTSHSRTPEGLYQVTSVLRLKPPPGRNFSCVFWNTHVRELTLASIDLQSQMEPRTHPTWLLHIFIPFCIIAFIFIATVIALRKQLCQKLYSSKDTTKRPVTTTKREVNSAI", "experiment": "flow cytometry, Kd estimated from MFI of Ig fusion protein binding to TNF-α-matured human monocyte-derived dendritic cells; the cells express both PD-L1 and PD-L2, so the value is an apparent avidity not resolved between the two ligands [panel B, table]"}}, "data": [{"substance": "PD-1 Ig (Fc fusion)", "values": [{"measurement": "Kd", "setting": "[1]", "result": 325, "unit": "nM"}, {"measurement": "Kd", "setting": "[2]", "result": 325, "unit": "nM"}]}]}
